Key:
[1] = target: human thrombin with His tag (human) (UniProt P00734); assay: Biacore; ratio of KD on pro-thrombin to KD on thrombin
[2] = target: human thrombin with His tag (human) (UniProt P00734); assay: Biacore; reference h1601-008
[3] = target: human prothrombin with His tag (human) (UniProt P00734); assay: Biacore; reference h1601-008
[4] = target: human thrombin with His tag (human) (UniProt P00734); assay: Biacore
[5] = target: human prothrombin with His tag (human) (UniProt P00734); assay: Biacore

- Selective activity [1]: 51
- Fold of Affinity relative to h1601-008 [2]: 3 fold
- Fold of Affinity relative to h1601-008 [3]: 0.6 fold
- Kd [4]: 2.57 nM
- Kd [5]: 131 nM
Substance: Ichorcumab (antibody)
